Data published in the supplement of paper PMC9170038.

Tested on: K4 kissing-loop RNA reporter
Assay: apparent KD of K4 kissing-loop reporter; higher = weaker reporter binding
Conditions: Eterna round: R107
Experimental: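 RNA-MaP round R107: designed RNA switches with theophylline, tryptophan, arginine or FMN aptamers are transcribed on-chip within common flanks. They are titrated with a labelled K4 kissing-loop RNA reporter in RNA-MaP buffer (100 mM Tris pH 7.5, 80 mM KCl, 4 mM MgCl2), without ligand or with the indicated ligand. Median apparent KD per design.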

[1] = input ligand: theophylline 20 uM
[2] = input ligand: tryptophan 2.4 mM
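Note: bound reporter read as fluorescence of individual clusters on recovered sequencing chips by microscopy, with normalized cluster intensities fitted with a binding model.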

Row | Sequence | apparent KD of K4 kissing-loop reporter (input ligand: FMN 200 uM) | apparent KD of K4 kissing-loop reporter (input ligand: arginine 13.2 mM) | apparent KD of K4 kissing-loop reporter (input ligand: none) | apparent KD of K4 kissing-loop reporter [1] | apparent KD of K4 kissing-loop reporter [2]
1 | AACGCUUGAAUAACAAGCGAAAUAAAUUCGCGAGGACCGGUACGGCCGCCACUCGCUAACUGCGAGUGAUGUUCGAUAAUAAAAU [Mat - Mod of OpenEnded 3 - D15] | 103 nM | 66.1 nM | 136 nM | 234 nM | 71 nM
2 | AAAGGAUCAGAGAGUGAUGUUCUCUAAUAACGAGGACCGGUACGGCCGCCACUCGAAGAUCCAAAAGUCCUACGAAAAGUAGGAC [Omei inspired 7] | 92.9 nM | 69.3 nM | 83.7 nM | 251 nM | 263 nM
3 | UUGGAGUGAUGUUCCAUAUCUUGAGCCGAAGGAGCGGCAUUAUUGCCAGGUAGGUCGCGGCAGAAGGUACCAGUGAUGUUGGAAA [Same State Arginine A GF 4] | 136 nM | 138 nM | 151 nM | 126 nM | 125 nM
4 | UUGUUUGGUUGAGAGGUUGGGCGAGAUGAUACCAGUAUAGUAUAGUACCCUUGGCAGCAUAGGAGAGAUAUAGUGAUGUUGUAUG [SSTheophA.V] | 424 nM | 288 nM | 493 nM | 372 nM | 373 nM
5 | AGUGAUGUGGGAAGGAGCGCUACAUCACUUCAGUGAUGUUGAAGUGAUGAAUUAGUGAUGUAGCAGGUAGGUCGCCUAGAUGUUA [KL-XARG-B12] | 76.3 nM | 38.5 nM | 58.3 nM | 60.8 nM | 51.3 nM
6 | UUCCUCAUGGUAGUGAUGUUGCCGCCCGAUACCAGUCGACGUAUUGACCCUUGGCAGCGGAUCAAGUCCGAUUAAUUUUUUGGUC [theeternabot_sameState_KL_Theo_A_5] | 216 nM | 190 nM | 217 nM | 320 nM | 196 nM
7 | ACGCGCGCGAGUGAUGUUCGGAGCGGCUGGCAGGAUAUGUAGCAAUGCAGAAGGGUCGUGGCGGUGGGCGCGCAAGCGGCUGCCG [#2 Exclusion - FMN A Attempt #12 (HarryS)] | 187 nM | 318 nM | 396 nM | 399 nM | 371 nM
8 | AAAUGUUUGUAUUUGAACAAUUUCCUUAGAGAGGAUAUUGGUAAUACAAGAAGGCUCUGAUGGGAGUGAUGUUCCCAUAACGCGG [Exclusion FMN A GF14] | 110 nM | 114 nM | 119 nM | 126 nM | 91 nM
9 | CAGACAUGCGGUAGGUUCAAGCGCUGGGAAGGAGCGCAGAUGACUGCAGGUAGGUCGCCCAGUGAUGUUGGGCUUUCCACCUAUG [Onbeenbi] | 110 nM | 122 nM | 120 nM | 150 nM | 107 nM
10 | GAUUCUGUUCGAAAGAACGGAAUCUCGGAAGGAGCGAGAGAAAUCUCAGGUAGGUCGCCGAAUUUUUGAUAGUGAUGUUAUCAUU [Arginine A K4 3] | 432 nM | 380 nM | 441 nM | 393 nM | 397 nM
11 | UGUUAUGUAUCAGGAUAUUAGUGAUGUUUGUUUAUGUUAGUGAUGUUGAUAUUUGUUUUAUGUAUUUAAGAAGGGAUUGAGAUGU [dcdmullin] | 55.4 nM | 19.8 nM | 45.1 nM | 27.7 nM | 50.9 nM
12 | CAUACCCAGUGAUGUUGGGUCGGUACCGAUACCAGUCGUACAGCCGACCCUUGGCAGCGGUAGCAUUGCCCGGCGUCGGCUUGUG [theeternabot_exclusion_KL_Theo_A_17] | 767 nM | 581 nM | 625 nM | 445 nM | 381 nM
13 | AACGACUGGAUGAAUAACAUCUAGUCGAUUCGAGGACCGGUACGGCCGCCACUCGAGCUAACUGCGAGUGAUGUUCGAUAAUAAA [#OpenEnded 3] | 347 nM | 433 nM | 390 nM | 524 nM | 96.6 nM
14 | AAUGUACAGGGAAGGAGCGUCGUCCAGUGAUGUUGGAGUUAAAUACCAGUGAUGUUGGUUAGGCAGGUAGGUCGCCCUAAAGUAG [#09 K4 Arginine B Exclusion] | 102 nM | 71.4 nM | 80.1 nM | 86.5 nM | 82.1 nM
15 | AUUAUAAAGUCGGCCGCCACUGAGAGUAGUGAUGUUACUCUUUUCCUUUAGAUAUUAUAUUUUAUCAGGACCGGGACAUCAGAUU [JR_ExcTryptoB_Sub020] | 198 nM | 170 nM | 208 nM | 180 nM | 162 nM
16 | GCUAUGGUAGGAAGGAGCGCUUGCUCGGUCAUAUGAGUGAUGUUCGAGACUGAGCAUUUAUAGCAGGUAGGUCGCCUACUAUAGC [Arginine B K4 9] | 235 nM | 206 nM | 182 nM | 242 nM | 177 nM
17 | UUGAGCCUGACGAAAGUCAGGCUCUGCGAGCGAGGACCGGUACGGCCGCCACUCGGUGCAGUGAUGUUGCAUGGCCGCAAGGCCG [#2 Exclusion - Tryptophan A Attempt #14 (HarryS)] | 309 nM | 300 nM | 289 nM | 312 nM | 456 nM
18 | AAAUUUAUAUUAGAUACCAGCAUAUUGAAAGUUUAUUAUGACAAGAGUGAUGUUCUUGUAUGCCCUUGGCAGCUGGUAUGGGUUU [KL-XTheo-B25] | 114 nM | 107 nM | 104 nM | 110 nM | 110 nM
19 | UACUAUAGUGAUGUUAUAGAUAAAACAGAUACCAGUGUAACAUAACACCCUUGGCAGCUGAUAAGGGAAAGUAUAAAUGUGUAUU [AstrosSSTHe-A#2newdesignED] | 207 nM | 188 nM | 199 nM | 208 nM | 186 nM
20 | GGUUCCUCAGUGAUGUUGAGGUGACCUCGGCAGGAUAUAGGCAUUACUAGAAGGGCCAAAUGAACCCUGUCCAGCGGCACAGGGA [Arleorbile] | 147 nM | 213 nM | 331 nM | 298 nM | 252 nM
21 | CGUUUAUAGCAGGAUACCAGUACCCAUUAUGUACGUUUAUAGUAGAGUGAUGUUCUAAAGUACCCUUGGCAGCUUCCCGUGACCC [ExTheophylB.Z] | 113 nM | 171 nM | 131 nM | 179 nM | 85.4 nM
22 | AGUGAUGUUGUGUUAUGUUUGGGAAGUGAUCGAGGACCGGUACGGCCGCCACUCGAGUGAUGAGUGAGUGAUGUUUGUUUAGGGA [whbob_SS_Tryp_A_m9] | 1060 nM | 698 nM | 962 nM | 1120 nM | 498 nM

Row | Sequence | apparent KD of K4 kissing-loop reporter (input ligand: FMN 200 uM) | apparent KD of K4 kissing-loop reporter (input ligand: arginine 13.2 mM) | apparent KD of K4 kissing-loop reporter (input ligand: none) | apparent KD of K4 kissing-loop reporter [1] | apparent KD of K4 kissing-loop reporter [2]
23 | AUACGUUUCAGAGGAUAUCGGAGGAGAGUGAUGUUCUCCCAUAGCCCAGUGAUGUUGGAAGCUAUCCGAGAAGGCUGUGGGCGUA [Same State FMN B GF 15] | 145 nM | 174 nM | 186 nM | 179 nM | 179 nM
24 | UGUGUUUACCUGACUCAGUGAUGUUGAGAAGGAGCGUGCUAAGGCACAGGUAGGUCGCUCAACCUAAAUUCAGGUGAGCACUAAA | 305 nM | 351 nM | 197 nM | 274 nM | 207 nM
25 | UGUCAUUGGUCUGAUACCAGAAGAAUCUGGAGUGAUGUUCCAAGUCGAUCAAAAGAUCGCUUCCCUUGGCAGCAGACCGAUGACU [TheoBS 24 #SwitchBubble 13 #StaticStem] | 315 nM | 291 nM | 300 nM | 188 nM | 298 nM
26 | AGUGAUGUUGUGUUAUGCAAGGGAAGUGAUCGAGGACCGGUACGGCCGCCACUCGAGUGAUGAGUGAGUGAUGUUUGUUUAGGGA [ffgmullin] | 1180 nM | 451 nM | 933 nM | 883 nM | 401 nM
27 | ACUAUCGAAAGAUAGUUCCCAGAGCUAGUAGAGGAUAUCUGGAAACAGAGAAGGCUACAAGAGUGAUGUUCUUCUAGCUUUGGGA | 403 nM | 291 nM | 316 nM | 337 nM | 349 nM
28 | AACAAGGGAUGUCAGUGAUGUUGUACGUCGCGAGGACCGGUACGGCCGCCACUCGUAAUACACAGAUGAGGGUUCUUUCUCUGAU [theeternabot_sameState_KL_Trp_A_49] | 305 nM | 179 nM | 268 nM | 265 nM | 228 nM
29 | AGUGAUGUGGGAAGGAGCGGUAUAUGAGUUCAGUGAUGUUGAAGUGAUGCUGUAGUGAUGUGCCAGGUAGGUCGCCUAGAUGUUA [whbob_Ex_Arginine_B_2th165] | 374 nM | 217 nM | 395 nM | 194 nM | 290 nM
30 | GUUACGCAUGGAAGGAGCGCACUCCGAUUGGGCGACGCAGUGAUGUUGUGGUUCGUUCGAAUGCAGGUAGGUCGCCAUGUGUAAC [Ex Arginine B K4 21] | 186 nM | 172 nM | 176 nM | 141 nM | 192 nM
31 | GUUGUAUACUGAAGGAGCGAGUAGUGGAAACAUAAACUCAUUGCGAGUGAUGUUCGCGGUACUCAGGUAGGUCGCGGUAAUCGUA [Exclusion Arginine B Gf 11] | 820 nM | 328 nM | 800 nM | 485 nM | 403 nM
32 | AAUGAUGAUUGACACAUUUACUAAAAGGAAGGAGCGGCGAAGUAGCCAGGUAGGUCGCCUUAUAGCAGUGAUGUUGCUAUUUGUU [JR_Nu_ExcArginiA_Sub027] | 59 nM | 106 nM | 83.1 nM | 105 nM | 76.2 nM
33 | UUGCUUCUACUAGGAUAUCAUCAGUCAUGUUCAAUGACACUCGAGUGAUGUUCGAUAGAAGCGAGAUGAGAAGGAGUACAAGCAG [FMB B SS t3] | 374 nM | 48.8 nM | 159 nM | 118 nM | 70.7 nM
34 | UUUUAAAUAUCUGAUACCAGAGAAAAUAUAUGUAGUGAUGUUAUAUACAAAAUAAAUAAGCUCCCUUGGCAGCAGUAUUAAUUUU [AstrosExyTheB#1] | 655 nM | 622 nM | 808 nM | 688 nM | 610 nM
35 | UGAUACCAGACGGCCGCCACUCCCGUAAGUCAAAGACUUACCAAGAGUAUCGUCCAGUGAUGUUGGAGGACCGGGUCUGGUAUCU [FiskerMod 9 - Jieux - Exclusion - Tryptophan B] | 376 nM | 321 nM | 330 nM | 320 nM | 829 nM
36 | UAAAAUAAAUAAUAGAGAGCGUUACUCGAAGGAGCGACGAAUUCGUCAGGUAGGUCGCGAGUGAUGUUCGCAAAUACGCUCUCAU [AK2 Exc Arginine A] | 838 nM | 655 nM | 850 nM | 696 nM | 682 nM
37 | UAGCGGUAGAGGCCACCGCUAUUCUGAGAAGGAGCGCAGAUGACUGCAGGUAGGUCGCUUAGAGCUUGCAGUGAUGUUGCAAGUU [Tebete] | 171 nM | 175 nM | 179 nM | 145 nM | 131 nM
38 | UGACUGGACUGAAGGAGCGCUAAAACUCCUAGUGAUGUUGGGAAAACGAGACAAAGUCUCGAGCAGGUAGGUCGCAGUCUAGUCU [ArgBS 22 #SwitchBubble #StaticStem] | 302 nM | 196 nM | 253 nM | 278 nM | 258 nM
39 | GGUAGCAUGGCGGCCGCCACUAUCAGGAGUGAUGUUCCAACGCAGAGCUUCAGCUAGUGUGUAAAUAGGACCGGGCCAUGCUACC | 414 nM | 69.8 nM | 512 nM | 177 nM | 866 nM
40 | CGCAGUGAUGUUGCGAGUAACUACAGGGAAGGAGCGCGGUAGUCCGCAGGUAGGUCGCCCACGCAGUGAUGUUGCGUCAUAGGGU [Exclusion Arg A GF7] | 110 nM | 109 nM | 104 nM | 118 nM | 97.3 nM
41 | UAGUCCGGGUGAUGGUCAUCACGUGGCGGGCGAGGACCGGUACGGCCGCCACUCGACUUUGCAGUGAUGUUGCAAACCGGACAAU [Exclusion - Tryptophan A (Freestyle 22)] | 221 nM | 192 nM | 201 nM | 225 nM | 259 nM
42 | AAGCAGUCUCUUGUAGUCAUCGAAGAUGAACGAGGACCGGUACGGCCGCCACUCGGAGUGAUGUUCCGAAGGCUGCAAAAUAAAA [MatMod 18 - Jieux - Exclusion - Tryptophan A] | 300 nM | 297 nM | 309 nM | 404 nM | 324 nM
43 | AGUGAUGUUGUGUUAUCUUAGUGAAGUGAUCGAGGACCGGUACGGCCGCCACUCGAGUGAUGAGUGAGUGAUGUUUGUUUAGGGA [vvbmullin] | 818 nM | 673 nM | 1080 nM | 931 nM | 561 nM
